Test results taken from patent US20150337053A1.
pKd: −log10 of the molar value.

Tests used:
human FcγRI (human) [1] = target: human FcγRI (human) (UniProt P12314); test: SPR (Biacore 3000), His-tagged receptor captured on anti-His IgG, antibody injected; 1:1 kinetic fit
[2] = target: human FcγRIIa (Example 1, allotype not stated) (human) (UniProt P12318); test: SPR (Biacore 3000), His-tagged receptor captured on anti-His IgG, antibody injected; steady state fit
human FcγRI (human) [3] = target: human FcγRI (human) (UniProt P12314); test: as above
[4] = target: human FcγRIIIa (Example 1) (human) (UniProt P08637); test: as above
Chain of human FcγRIIIa (Example 1) (human) (P08637 17-208 F176V limits assumed): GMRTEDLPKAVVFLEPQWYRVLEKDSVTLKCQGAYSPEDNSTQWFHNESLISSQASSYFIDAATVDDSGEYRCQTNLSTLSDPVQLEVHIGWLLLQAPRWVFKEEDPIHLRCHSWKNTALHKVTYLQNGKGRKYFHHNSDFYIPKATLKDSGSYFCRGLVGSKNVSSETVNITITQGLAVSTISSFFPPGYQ

[5] = target: human FcγRIIIa (Example 1) (human) (UniProt P08637); test: SPR (Biacore 3000), His-tagged receptor captured on anti-His IgG, antibody injected; 1:1 kinetic fit

Chain of human FcγRI (human) (P12314 16-288 limits assumed): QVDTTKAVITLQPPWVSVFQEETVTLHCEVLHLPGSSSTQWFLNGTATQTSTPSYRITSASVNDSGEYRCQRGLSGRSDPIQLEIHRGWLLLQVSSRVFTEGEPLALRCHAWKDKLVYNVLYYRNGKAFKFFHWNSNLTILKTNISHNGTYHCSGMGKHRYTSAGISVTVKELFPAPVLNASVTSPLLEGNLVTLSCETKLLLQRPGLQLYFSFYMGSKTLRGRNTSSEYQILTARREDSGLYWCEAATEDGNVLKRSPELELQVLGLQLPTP
Chain of human FcγRIIa (Example 1, allotype not stated) (human) (P12318 36-218 limits assumed): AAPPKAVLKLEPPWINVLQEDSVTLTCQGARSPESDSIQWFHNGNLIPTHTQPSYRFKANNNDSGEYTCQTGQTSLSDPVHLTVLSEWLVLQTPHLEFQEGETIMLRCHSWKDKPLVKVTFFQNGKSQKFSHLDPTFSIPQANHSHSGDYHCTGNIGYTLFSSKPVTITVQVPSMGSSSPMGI

Substance | pKd (human FcγRI (human) [1]) | pKd [2] | pKd (human FcγRI (human) [3]) | pKd [4] | pKd [5]
huIgG1-Ag (aglycosylated IgG1, N297A) (antibody) | – | < 3.77 | 5.43 | < 4.02 | –
huIgG2c4b (V234A, G237A, H268Q, V309L, A330S, P331S) (antibody) | – | 3.77 | 4.42 | < 4.02 | –
huIgG2c4c (V234A, G237A, H268A, V309L, A330S, P331S) (antibody) | 7.36 | 4.72 | – | – | 6.19
huIgG2c4d (V234A, G237A, P238S, H268A, V309L, A330S, P331S) (antibody) | – | < 3.77 | < 3.68 | < 4.02 | –
huIgG2c4e (P233S, V234A, G237A, P238S, H268A, V309L, A330S, P331S) (antibody) | – | < 3.77 | < 3.68 | < 4.02 | –
huIgG4 Ala-Ala, Ser-Pro (S228P, F234A, L235A) (antibody) | – | 3.82 | 4.82 | 4.26 | –

Stronger by pKd [2], values ahead:

pKd (human FcγRI (human) [1]) | pKd [2] | pKd (human FcγRI (human) [3]) | pKd [4] | pKd [5] | Substance
7.89 | 6.15 | – | – | – | huIgG1 (wild type human IgG1 isotype, anti-Her2/neu construct) (antibody)
– | 6.00 | 3.92 | 4.39 | – | huIgG2 (wild type human IgG2 isotype, anti-Her2/neu construct) (antibody)
– | 5.66 | 3.80 | 4.07 | – | huIgG2c4a (H268A, V309L, A330S, P331S) (antibody)
– | 5.57 | 3.68 | 4.02 | – | huIgG2m4 (H268Q, V309L, A330S, P331S) (antibody)
